Values of other authors as cited in patent publication US20140011241A1, “Method enabling isomerization process flows at lower pH, lower temperature, and in the presence of certain inhibiting compounds by using the xylose isomerase enzyme from the microorganism Fulvimarina pelagi” (priority 2011, published 2014).

Test system: xylose isomerase

B1: xylose isomerase from Thermus thermophilus: xylose isomerase from Thermus thermophilus and mutants derived from it (U.S. Pat. No. 6,475,768) (protein, UniProt P26997 1-387, looked up)
Xylose isomerase: MYEPKPEHRFTFGLWTVGNVGRDPFGDAVRERLDPVYVVHKLAELGAYGVNLHDEDLIPRGTPPQERDQIVRRFKKALDETGLKVPMVTANLFSDPAFKDGAFTSPDPWVRAYALRKSLETMDLGAELGAEIYVVWPGREGAEVEATGKARKVWDWVREALNFMAAYAEDQGYGYRFALEPKPNEPRGDIYFATVGSMLAFIHTLDRPERFGLNPEFAHETMAGLNFVHAVAQALDAGKLFHIDLNDQRMSRFDQDLRFGSENLKAAFFLVDLLESSGYQGPRHFDAHALRTEDEEGVWAFARGCMRTYLILKERAEAFREDPEVKELLAAYYQEDPAALALLGPYSREKAEALKRAELPLEAKRRRGYALERLDQLAVEYLLGVRG
activity at low temperature: very low | pH at which active: 6
